Experimental data published in patent US20060057619A1.

Molecular target: canine Met (canine) (UniProt Q75ZY9)
Assay: cell-based or functional assay

Work on “recombinant human HGF (from UniProt P14210 32-728) (ligand)” yielded a phosphorylation of canine Met in OSA cell lines of 50 ng/mL.
